T1: murine CD19 protein (murine, UniProt P25918 17-287, limits assumed)
T1 construct: bought protein; also called commercial murine CD19
T1 sequence (looked up): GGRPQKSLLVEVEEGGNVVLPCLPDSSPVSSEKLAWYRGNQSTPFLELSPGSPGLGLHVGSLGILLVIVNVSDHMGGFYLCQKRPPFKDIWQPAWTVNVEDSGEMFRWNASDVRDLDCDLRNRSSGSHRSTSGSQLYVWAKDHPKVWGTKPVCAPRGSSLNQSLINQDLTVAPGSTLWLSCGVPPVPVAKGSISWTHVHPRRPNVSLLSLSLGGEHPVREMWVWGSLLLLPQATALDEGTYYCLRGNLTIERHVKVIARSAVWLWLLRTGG

T2: Human CD19-his protein (human, UniProt P15391 20-291)
T2 construct: bought protein; also called human CD19 protein; recombinant human CD19-His; not shown: His tag
T2 sequence (looked up): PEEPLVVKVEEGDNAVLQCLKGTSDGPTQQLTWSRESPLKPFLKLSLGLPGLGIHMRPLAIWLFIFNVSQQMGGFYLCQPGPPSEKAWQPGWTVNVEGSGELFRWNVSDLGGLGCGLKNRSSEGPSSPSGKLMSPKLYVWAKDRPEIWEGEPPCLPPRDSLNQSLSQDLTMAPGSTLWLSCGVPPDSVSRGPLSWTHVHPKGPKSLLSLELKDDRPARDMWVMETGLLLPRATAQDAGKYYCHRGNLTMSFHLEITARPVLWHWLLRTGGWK

T3: human CD19 exon1-3-his protein (human, UniProt P15391 20-186, limits assumed)
T3 construct: made in HEK293E cells; also called membrane-distal end; not shown: His tag
T3 sequence (looked up): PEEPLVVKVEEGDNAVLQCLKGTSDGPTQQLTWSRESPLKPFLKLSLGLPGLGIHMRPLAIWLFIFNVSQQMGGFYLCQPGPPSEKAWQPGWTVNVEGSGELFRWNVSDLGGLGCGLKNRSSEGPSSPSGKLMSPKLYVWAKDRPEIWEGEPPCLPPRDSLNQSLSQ


What was measured:
[1] = biological target: T1, murine CD19 protein; assay: ELISA, coated murine CD19
Experimental: (§1) Human CD19-his protein (purchased from ACROBiosystems, catalog number: CD9-H52H2) was diluted with PBS to a final concentration of 4 μg/mL, and then added to a 96-well ELISA plate at 100 μl/well. The plate was sealed with a plastic film and incubated overnight at 4° C., the plate was washed 2 times with PBS the next day, and then a blocking solution [PBS+2% (w/w) BSA] was added for blocking at room temperature for 2 h. The blocking solution was poured off, and 100 nM gradiently diluted CD19 chimeric antibody or control antibody was added at 50 μl/well. After incubation at 37° C. for 2 h, the plate was washed 3 times with PBS. […] TMB substrate was added at 50 μl/well, and incubated at room temperature for 10 min, and then a stop solution (1.0 N HCl) was added at 50 μl/well. The OD450 nm values were read by an ELISA microplate reader (Multimode Plate Reader, EnSight, purchased from Perkin Elmer).
In order to detect the species cross-binding activity of the chimeric antibodies, an ELISA plate was coated with commercial murine CD19 (ACROBiosystems, catalog number: 50510-M08H) and monkey CD19 (ACROBiosystems, catalog number: 90051-C08H), respectively, and the ELISA detection was performed according to the method in example 5.1.

[2] = biological target: T2, Human CD19-his protein; assay: ELISA, antibody at 0.001 nM
Experimental: as §1

[3] = biological target: T2, Human CD19-his protein; assay: ELISA, antibody at 10 nM
Experimental: as §1

[4] = biological target: T2, Human CD19-his protein; assay: ELISA, antibody at 0.01 nM
Experimental: as §1

[5] = biological target: T2, Human CD19-his protein; assay: ELISA, antibody at 0.10 nM
Experimental: as §1

[6] = biological target: T2, Human CD19-his protein; assay: ELISA, antibody at 1.00 nM
Experimental: as §1

[7] = biological target: T3, human CD19 exon1-3-his protein; assay: ELISA, coated at 2 ug/mL
Experimental: as §1
CD19 protein contains 4 exons in the extracellular region, in which exons 1-3 are located at the membrane-distal end and exon 4 is located at the membrane-proximal end. […] To identify the distribution of antigen binding epitopes of the chimeric antibodies, human CD19 exon 1-3-His (membrane-distal end) was used to coat at 2 μg/mL according to the ELISA method in example 5.1.

[8] = biological target: T2, Human CD19-his protein; assay: ELISA, antibody at 0.0001 nM
Experimental: as §1

[9] = biological target: T2, Human CD19-his protein; assay: ELISA, antibody at 100 nM
Experimental: as §1

Binder	binding result [1]	OD450 [2]	OD450 [3]	OD450 [4]	OD450 [5]	OD450 [6]	binding result [7]	OD450 [8]	OD450 [9]
F4.35.5 (antibody, human IgG1, V domains shown, human-murine chimeric antibody, human IgG1) VH: EIQLQQSGPELVKPGASVKVSCKASGYAFTSYNMYWVKQSHGKSLEWIGYIDPYNGDTRYNQKFKGKATLTVDKSSSTAYMHLNSLTSEDSAVYYCTRSGTGRDYWGQGTTLTVSS VL: QIVLTQSPAIMSASPGEKVTMTCSASSSISYMFWFQQKPGSSPRLLIYDTSSLASGVPVRFSGSGSGTSYTLTISRMEAEDAATYYCQQWSNYPYTFGGGTKLEMK	no binding	0.05	0.65	0.07	0.25	0.5	no binding	0.05	0.87
F4.37.6 (antibody, human IgG1, V domains shown, human-murine chimeric antibody, human IgG1) VH: QVQLQQSGAELARPGASVKLSCKASGYTFTSFWMQWLKQRPGQGLEWIGTIYPGDGDTRYTQKFKGKATLTADKSSNTAYMQLSSLASEDSAVYYCARGALSNYGGFAYWGQGTLVTVSA VL: NIVLTQSPASLAVSLGQRATISCRASESVDSYGHSFMHWYQQKPGQPPKLLIYLASNLESGVPARFSGSGSRTDFTLTIDPVEADDAATYYCQQNNEDPWTFGGGTKLEIK	no binding	0.09	1	0.2	0.6	0.8	no binding	0.07	1.08
F4.49.11 (antibody, human IgG1, V domains shown, human-murine chimeric antibody, human IgG1) VH: DVQLRASGPGLVKPSQSLSLTCSVTGYSITSGYYWNWIRQFPGNKLEWMGCISYDGTNNYNPSLKNRISFTRDTSKNQFFLNLNSVTTEDSATYYCARRVYYRYDGVVDYWGQGTSVTVSS VL: ENVLTQSPAIMSASPGEKVTMTCSASSSVSYIHWYQQKSSTAPKLWIYDTSKLASGVPGRFSGSRSRNSYSLTISSMEAEDVATYYCFQGSGYPLTFGSGTKLEIK	no binding	0.05	0.85	0.07	0.13	0.48	no binding	0.04	1.16
F4.58.6 (antibody, human IgG1, V domains shown, human-murine chimeric antibody, human IgG1) VH: QVQLQQPGAELVKPGASVKLSCKASGYTFTSYWMHWVKQRPGQGLEWIGEIDPSDSYSNYNQKFKGKATLTVDKSSSTAYMQLSSLTSEDSAVYYCARSNYGSSYGYFDVWGAGTTVTVSS VL: QIVLTQSPAIMSASPGEKVTMTCSVSSSLSYMHWYQQKPGTSPKRWIYDTSKLASGVPARFSGSGSGTSYSLTISSMEAEDAATYYCHQRSSYPTFGGGTKLEIK	no binding	0.05	0.8	0.09	0.3	0.67	no binding	0.05	0.94
F4.96.6 (antibody, human IgG1, V domains shown, human-murine chimeric antibody, human IgG1) VH: EIQLQQSGPELVKPGASVKVSCKASGYAFSAYNIYWVKQSHGKSLEWIGYIDPYNSGTTYNQKFRGKATLTVDKSSNTAYMHLSSLTSEDSAVYYCTRDGDAMDYWGQGTSVTVSS VL: EILLTQSPAIIAASPGEKVTITCSASSGVIYMNWYQQKPGSSPKIWIYDVSTLASGVPARFSGSGSGTSFSFTINSMEAEDVATYYCQQRSSYPYTFGGGTKLEIK	no binding	0.06	1.16	0.11	0.29	0.91	no binding	0.05	1.64
F4.276.12 (antibody, human IgG1, V domains shown, human-murine chimeric antibody, human IgG1) VH: EIQLQQSGPELVKPGASVKVSCKASGYAFSAYNMYWVKQSHGKSLEWIGYIDPYNGGTNYNQKFKGKATLTVDKSSSTAYMHLNSLTSEDSAVYYCARDGYEVTYWGQGTLVTVSA VL: QIVLTQSPALMSASLGEEITLTCSASSSVTYMHWSQQKSGTSPRLLIYSTSNLASGVPSRFSGSGSGTFYSLTISSVEAEDAADYYCHQWSSYPWTFGGGTKLEIK	no binding	0.06	1.2	0.13	0.4	1.07	no binding	0.05	1.43
F5.11.2 (antibody, human IgG1, V domains shown, human-murine chimeric antibody, human IgG1) VH: EVQLVESGGDLVKPGGSLKLSCAASGFTFSSYGMSWVRQTPDKRLEWVATISHGGSYTHYPDSVKGRFTISRDNAKNTLYLQMNSLKSEDTAMYYCVRLPITTVEAPYFFDYWGQGTTLTVSS VL: DIQMTQTTSSLSASLGDRVTISCRASQDIRNYLNWYQQKPDGTVKLLIYYTSILHSGVPSRFSGSGSGTDYSLTINNLEQEDVATYFCQQGNTLYTFGGGTEVELR	no binding	0.07	2.68	0.14	0.56	1.82	–	0.06	3.01
F6.2.9 (antibody, human IgG1, V domains shown, human-murine chimeric antibody, human IgG1) VH: QVQLQQSGAELVKPGASVKISCKASGYAFSSYWMNWVKQRPGKGLEWIGQIYPGDGDTNYNGKFKGKATLTADKSSSTGYMQLSSLTSEDSAVYFCARSRITSVVDWYFDVWGTGTTVTVSS VL: QIVLSQSPAILSASPGEKVTMTCRASSSVSYMHWYQQKPGSSPKPWIYATSNLASGVPARFSGSGSGTSYSLTISRVEAEDAATYYCQQWSSNPPTFGAGTKLELK	no binding	0.06	0.26	0.06	0.08	0.13	no binding	0.06	0.33
F6.5.20 (antibody, human IgG1, V domains shown, human-murine chimeric antibody, human IgG1) VH: QVQLQQPGAELVKPGASVKLSCKASGYTFTSYWMQWVKQRPGQGLEWIGEIDPSDSYTNYNQKFKGKASLTVDTSSSTAYMQLSSLTSEDSAVYYCARWGLLRNYYVMDYWGQGTSVTVSS VL: EIVLTQSPTTMAASPGEKITITCSASSSISSNYLHWYQQKPGFSPKLLIYRTSNLASGVPARFSGSGSGTSYSLTIGTMEAEDVATYYCQQGSSIPRMLTFGAGTKLELK	no binding	0.06	0.43	0.1	0.34	0.45	no binding	0.05	0.63
F3.23.10 (antibody, human IgG1, V domains shown, human-murine chimeric antibody, human IgG1) VH: EFQLQQSGPELVKPGASVKISCKASDYSFTDYNMNWVKQSNGASLEWIGIINPNFGSTSYNQKFKGKATLTVDQSSSTAFMQLNSLTSEDSAVYYCARSEYYGSSGFAYWGQGTLVTVSA VL: DVVVTQTPLSLPVSFGDQVSISCRSSQSLVNSYGNTYLSWYLHKPGQSPQLLIYGISNRFSGVPDRFSGSGSGTDFTLKITTIKPEDLGMYYCLQGTHQPWTFGGGTKLEIK	no binding	0.06	1.85	0.09	0.39	1.27	–	0.05	2.14
